Values quoted from earlier work, collected in article PMC7561547.

Target: Her2 (Homo sapiens) (UniProt P04626)

trastuzumab
Kd: 0.1 nM
